Laboratory results published in patent publication US20250304709A1 (Eli Lilly, published 2025).

Experiments:
mouse L1CAM-hIgG1-Fc [1] = target: T1, mouse L1CAM-hIgG1-Fc (mouse; human, UniProt P11627 20-1123, limits assumed); assay: SPR, Biacore T200, 25 C, MBM captured by human Fab capture kit, target as analyte, 1:1 fit (column head also prints '(10^-4)', not applied a second time)
T1 construct: also called mL1CAM; not shown: human IgG1 Fc
Procedure: (§1) A human Fab capture kit (Cytiva P/N 28958325) is immobilized on a CM5 chip (Cytiva P/N 29104988) using standard NHS-EDC amine coupling on all four flow cells (Fc). Multispecific binding molecules (“MBM1” of Table 2, with or without conjugated siRNA (denoted by *) as described above) are prepared at 10 μg/mL by dilution into running buffer. Target (e.g., mouse TFR-mIgG1-Fc, mouse L1CAM-hIgG1-Fc and human L1CAM-hIgG1-Fc, respectively) are prepared at final concentrations of 100.0, 25.0, 6.25, 1.56, 0.39, 0.097, 0.024 and 0 (blank) nM by dilution into running buffer.
(§2) Each analysis cycle consists of (1) capturing multispecific binding molecule samples on separate flow cells (Fc2, Fc3 and Fc4); (2) injection of the respective concentration for the blood brain barrier target (e.g., TFR) over all Fc at 10 μL/min for 60 seconds followed by return to buffer flow for 1800 seconds to monitor dissociation phase; (3) injection of each human L1CAM concentration over all Fc at 100 μL/min for 120 seconds followed by return to buffer flow for 1200 seconds to monitor dissociation phase; (4) regeneration of chip surfaces with injection of 10 mM glycine, pH 1.5, for 30 seconds at 10 μL/min over all cells; and (5) equilibration of chip surfaces with a 10 μL (60-sec) injection of HBS-EP+. Data are processed using standard double-referencing and fit to a 1:1 binding model using Biacore T200 Evaluation software, version 2.0.3, to determine the association rate (kₒₙ, M⁻¹s⁻¹ units), dissociation rate (koff, s⁻¹ units), and Rₘₐₓ (RU units). The equilibrium dissociation constant (KD) is calculated from the relationship KD=koff/kₒₙ, and presented in molar units.

human L1CAM-hIgG1-Fc [2] = target: T2, human L1CAM-hIgG1-Fc (human, UniProt P32004 20-1120, limits assumed); assay: as above
T2 construct: also called hL1CAM; not shown: human IgG1 Fc
Procedure: as §1, §2

mouse L1CAM-hIgG1-Fc [3] = target: T1, mouse L1CAM-hIgG1-Fc; assay: SPR, Biacore T200, 25 C, MBM captured by human Fab capture kit, KD=koff/kon (column head prints pM; text says molar units)
Procedure: as §1, §2

human L1CAM-hIgG1-Fc [4] = target: T2, human L1CAM-hIgG1-Fc; assay: as above
Procedure: as §1, §2

mouse L1CAM-hIgG1-Fc [5] = target: T1, mouse L1CAM-hIgG1-Fc; assay: SPR, Biacore T200, 25 C, MBM captured by human Fab capture kit, target as analyte, 1:1 fit
Procedure: as §1, §2

human L1CAM-hIgG1-Fc [6] = target: T2, human L1CAM-hIgG1-Fc; assay: as above
Procedure: as §1, §2

T1 sequence (P11627 20-1123 limits assumed): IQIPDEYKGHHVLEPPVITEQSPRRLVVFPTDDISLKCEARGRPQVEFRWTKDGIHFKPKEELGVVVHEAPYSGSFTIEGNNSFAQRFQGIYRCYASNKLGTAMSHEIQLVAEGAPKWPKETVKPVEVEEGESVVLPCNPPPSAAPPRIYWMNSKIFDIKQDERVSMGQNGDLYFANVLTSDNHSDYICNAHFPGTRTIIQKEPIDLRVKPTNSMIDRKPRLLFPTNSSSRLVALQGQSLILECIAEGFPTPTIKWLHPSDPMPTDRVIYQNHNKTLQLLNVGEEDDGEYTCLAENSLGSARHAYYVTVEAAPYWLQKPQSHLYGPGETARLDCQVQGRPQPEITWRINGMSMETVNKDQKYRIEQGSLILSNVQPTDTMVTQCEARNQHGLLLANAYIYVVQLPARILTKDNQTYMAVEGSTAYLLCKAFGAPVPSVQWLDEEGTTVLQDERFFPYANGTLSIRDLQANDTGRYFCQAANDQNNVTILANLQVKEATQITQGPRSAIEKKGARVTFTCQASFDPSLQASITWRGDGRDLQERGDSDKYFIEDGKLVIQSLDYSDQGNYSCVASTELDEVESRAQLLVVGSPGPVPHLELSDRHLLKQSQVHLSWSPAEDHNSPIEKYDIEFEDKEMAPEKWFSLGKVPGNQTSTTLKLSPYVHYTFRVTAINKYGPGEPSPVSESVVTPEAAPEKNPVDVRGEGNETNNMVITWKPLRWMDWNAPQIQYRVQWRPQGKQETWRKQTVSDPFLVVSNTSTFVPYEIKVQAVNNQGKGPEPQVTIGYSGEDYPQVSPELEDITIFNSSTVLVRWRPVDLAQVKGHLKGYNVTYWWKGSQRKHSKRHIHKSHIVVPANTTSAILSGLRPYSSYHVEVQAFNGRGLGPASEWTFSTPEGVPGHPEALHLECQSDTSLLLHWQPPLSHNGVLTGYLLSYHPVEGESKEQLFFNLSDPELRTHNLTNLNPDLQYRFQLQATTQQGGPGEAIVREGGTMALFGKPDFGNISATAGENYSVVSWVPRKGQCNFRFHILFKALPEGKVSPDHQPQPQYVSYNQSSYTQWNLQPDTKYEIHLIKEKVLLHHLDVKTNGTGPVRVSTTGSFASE
T2 sequence (P32004 20-1120 limits assumed): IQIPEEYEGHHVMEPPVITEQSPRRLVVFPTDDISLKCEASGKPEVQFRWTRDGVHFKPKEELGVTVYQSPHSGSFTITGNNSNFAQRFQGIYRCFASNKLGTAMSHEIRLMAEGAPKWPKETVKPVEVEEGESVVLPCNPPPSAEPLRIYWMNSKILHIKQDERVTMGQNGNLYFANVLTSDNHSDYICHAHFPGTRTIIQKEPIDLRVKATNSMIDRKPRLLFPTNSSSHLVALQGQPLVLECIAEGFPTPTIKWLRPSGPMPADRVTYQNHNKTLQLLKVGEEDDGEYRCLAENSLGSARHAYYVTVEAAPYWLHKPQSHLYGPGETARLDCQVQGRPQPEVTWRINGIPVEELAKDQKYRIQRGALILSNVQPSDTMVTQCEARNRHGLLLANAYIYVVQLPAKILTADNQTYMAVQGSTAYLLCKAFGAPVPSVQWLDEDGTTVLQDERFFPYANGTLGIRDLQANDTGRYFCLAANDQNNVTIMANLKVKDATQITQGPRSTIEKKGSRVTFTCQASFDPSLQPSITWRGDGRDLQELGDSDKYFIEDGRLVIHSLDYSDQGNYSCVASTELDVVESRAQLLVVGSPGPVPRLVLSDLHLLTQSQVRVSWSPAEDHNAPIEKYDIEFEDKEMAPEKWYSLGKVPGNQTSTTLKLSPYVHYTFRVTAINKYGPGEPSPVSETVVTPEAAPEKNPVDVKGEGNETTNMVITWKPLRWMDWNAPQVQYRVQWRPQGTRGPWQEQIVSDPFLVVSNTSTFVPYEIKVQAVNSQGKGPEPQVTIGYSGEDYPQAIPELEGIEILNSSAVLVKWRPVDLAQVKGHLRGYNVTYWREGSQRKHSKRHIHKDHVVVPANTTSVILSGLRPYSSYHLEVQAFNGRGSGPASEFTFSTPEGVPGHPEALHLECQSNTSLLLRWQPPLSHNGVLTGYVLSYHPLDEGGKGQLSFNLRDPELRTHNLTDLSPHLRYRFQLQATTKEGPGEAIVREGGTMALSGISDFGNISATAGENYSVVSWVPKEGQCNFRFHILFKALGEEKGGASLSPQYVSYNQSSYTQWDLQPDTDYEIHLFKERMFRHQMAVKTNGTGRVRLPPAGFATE

Binder	koff (mouse L1CAM-hIgG1-Fc [1]) [s⁻¹]	koff (human L1CAM-hIgG1-Fc [2]) [s⁻¹]	Kd (mouse L1CAM-hIgG1-Fc [3]) [pM]	Kd (human L1CAM-hIgG1-Fc [4]) [pM]	kon (mouse L1CAM-hIgG1-Fc [5]) [M⁻¹ s⁻¹]	kon (human L1CAM-hIgG1-Fc [6]) [M⁻¹ s⁻¹]
Exemplified multispecific binding molecule MBM1 with conjugated siRNA (MBM1*) (bispecific antibody, human IgG4 S228P, kappa, F234A L235A, conjugated siRNA (denoted by *); site not stated for the SPR sample; elsewhere 'siRNA linked at HC Constant region 1', Same four chains as MBM1, with siRNA conjugated) heavy 1: not shown light 1: ALDMTQTASPVSAAVGGTVTINCQSSQSVYNNNRLAWYQQKPGQPPKLLIYDASTLASGVPSRFKGSGSGTQFTLTISGVQSDDSATYYCQGTYFSSGWSWAFGGGTEVVVKRTVAAPSVFIFPPSDEQLKSGTASVVCLLNNFYPREAKVQWKVDNALQSGNSQESVTEQDSKDSTYSLSSTLTLSKADYEKHKVYACEVTHQGLSSPVTKSFNRGEC heavy 2: EVQLVESGGGVVQPGRSLRLSCAASGFTFSRFGMHWVRQAPGKGLEWVAFISNDGSNKYYADSVKGRFTISRDNSKNTLYLQMNSLRPEDTAVYYCARGRAYGSGSLFDPWGQGTLVTVSSASTKGPCVFPLAPCSRSTSESTAALGCLVKDYFPEPVTVSWNSGALTSGVHTFPAVLQSSGLYSLSSVVTVPSSSLGTKTYTCNVDHKPSNTKVDKRVESKYGPPCPPCPAPEAAGGPSVFLFPPKPKDTLMISRTPEVTCVVVDVSQEDPEVQFNWYVDGVEVHNAKTKPREEQFNSTYRVVSVLTVLHQDWLNGKEYKCKVSNKGLPSSIEKTISKAKGQPREPQVYTLPPSQEEMTKNQVSLTCLVKGFYPSDIAVEWESNGQPENNYKTTPPVLDSDGSFLLYSKLTVDKSRWQEGNVFSCSVMHEALHNHYTQKSLSLSLG light 2: DIQMTQSPSSLSASVGDRVTITCKASQGISRFLSWFQQKPGKAPKSLIYAVSSLVDGVPSRFSGSGSGTDFTLTISSLQPEDFATYYCVQYNSYPYGFGGGTKVEIKRTVAAPSVFIFPPSDEQLKSGTASVVCLLNNFYPREAKVQWKVDNALQSGNSQESVTEQDSKDSTYSLSSTLTLSKADYEKHKVYACEVTHQGLSSPVTKSFNRGEC	0.00027	0.00023	1200	890	220000	260000
Exemplified multispecific binding molecule MBM1 (heterodimeric IgG antibody, TFR arm and L1CAM arm) (bispecific antibody, without siRNA; also called BD1 + BD9) heavy 1: not shown light 1: ALDMTQTASPVSAAVGGTVTINCQSSQSVYNNNRLAWYQQKPGQPPKLLIYDASTLASGVPSRFKGSGSGTQFTLTISGVQSDDSATYYCQGTYFSSGWSWAFGGGTEVVVKRTVAAPSVFIFPPSDEQLKSGTASVVCLLNNFYPREAKVQWKVDNALQSGNSQESVTEQDSKDSTYSLSSTLTLSKADYEKHKVYACEVTHQGLSSPVTKSFNRGEC heavy 2: EVQLVESGGGVVQPGRSLRLSCAASGFTFSRFGMHWVRQAPGKGLEWVAFISNDGSNKYYADSVKGRFTISRDNSKNTLYLQMNSLRPEDTAVYYCARGRAYGSGSLFDPWGQGTLVTVSSASTKGPCVFPLAPCSRSTSESTAALGCLVKDYFPEPVTVSWNSGALTSGVHTFPAVLQSSGLYSLSSVVTVPSSSLGTKTYTCNVDHKPSNTKVDKRVESKYGPPCPPCPAPEAAGGPSVFLFPPKPKDTLMISRTPEVTCVVVDVSQEDPEVQFNWYVDGVEVHNAKTKPREEQFNSTYRVVSVLTVLHQDWLNGKEYKCKVSNKGLPSSIEKTISKAKGQPREPQVYTLPPSQEEMTKNQVSLTCLVKGFYPSDIAVEWESNGQPENNYKTTPPVLDSDGSFLLYSKLTVDKSRWQEGNVFSCSVMHEALHNHYTQKSLSLSLG light 2: DIQMTQSPSSLSASVGDRVTITCKASQGISRFLSWFQQKPGKAPKSLIYAVSSLVDGVPSRFSGSGSGTDFTLTISSLQPEDFATYYCVQYNSYPYGFGGGTKVEIKRTVAAPSVFIFPPSDEQLKSGTASVVCLLNNFYPREAKVQWKVDNALQSGNSQESVTEQDSKDSTYSLSSTLTLSKADYEKHKVYACEVTHQGLSSPVTKSFNRGEC	0.0002	0.00011	510	270	400000	430000
